In patent US20250270289A1, “SEQUENCE-DEFINED POLYMERS WITH ONE OR MORE AZIDES, METHODS OF MAKING, AND METHODS OF USE THEREOF” (Yale University, priority 2021, published 2025):

Assays:
[1] = Half-life from blood samples by GFP ELISA after injection; assay type: in vivo, C57BL/6 mice; conditions: intravenous, 50 μg, no ISAz treatment
Method: The half-lives of ELP-GFP constructs were calculated from concentrations measured from blood samples collected over the course of a week. The experiments were initiated by injecting 120 μL of 10 μM ELP-GFP intravenously or subcutaneously. At indicated times, 2 μL blood was collected from a tail puncture, and diluted 1:25 in heparin tubes. The blood sample was vortexed briefly and cells were pelleted by centrifugation (2 min at 14,000 g). The soluble fraction was collected and frozen at −20° C. until analysis. ELP-GFP concentrations of the samples were determined using a GFP ELISA Kit (Abcam, cat. #ab171581). The samples were diluted in PBS as needed, to ensure that the concentration fell within the quantifiable range of the standard curve.
Next, experiments were designed to determine if the tighter binding affinity translates into prolonged half-life in C57BL/6J mice. A total of 50 μg of each protein variant (10 μM in PBS) was injected intravenously, and blood was collected after 1, 4, 8, 16 and 24 hours, followed by daily collections through seven days. The blood levels of ELP(nFA)-GFP constructs were measured using a GFP-specific ELISA, and their pharmacokinetic profiles were calculated (see FIGS. 7F and 7G).

[2] = molecular target: mouse serum albumin (MSA) (Mus musculus, UniProt P07724); experiment: Surface plasmon resonance, steady-state affinity; conditions: not ISAz treated; mean (s.d.) of 4-8 experiments; n.d. = no binding detected
Sequence of mouse serum albumin (MSA) (P07724 25-608): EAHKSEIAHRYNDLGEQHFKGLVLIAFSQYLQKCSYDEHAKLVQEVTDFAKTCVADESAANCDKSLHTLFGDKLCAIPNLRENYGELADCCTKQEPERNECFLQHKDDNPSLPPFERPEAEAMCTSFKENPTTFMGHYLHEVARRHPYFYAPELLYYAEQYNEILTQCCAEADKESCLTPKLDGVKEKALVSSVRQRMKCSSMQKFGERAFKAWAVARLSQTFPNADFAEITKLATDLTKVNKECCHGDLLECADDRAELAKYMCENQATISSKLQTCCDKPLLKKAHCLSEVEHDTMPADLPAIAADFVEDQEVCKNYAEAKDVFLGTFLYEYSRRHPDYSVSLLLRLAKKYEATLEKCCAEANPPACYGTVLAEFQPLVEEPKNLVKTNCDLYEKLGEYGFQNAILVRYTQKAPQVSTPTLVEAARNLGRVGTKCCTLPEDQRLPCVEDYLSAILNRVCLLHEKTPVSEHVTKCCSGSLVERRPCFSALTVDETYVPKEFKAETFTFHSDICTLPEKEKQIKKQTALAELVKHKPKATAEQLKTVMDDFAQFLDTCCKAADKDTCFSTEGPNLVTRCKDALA

B1: ELP(0FA)GFP: ELP-GFP fusion, 10 pentadecapeptide repeats with tyrosine at the guest residue, no conjugated fatty acids (SEQ ID NO:33) (protein)
chain: MSKGPGVPGGGVPGAGVPGYGVPGGGVPGAGVPGYGVPGGGVPGAGVPGYGVPGGGVPGAGVPGYGVPGGGVPGAGVPGYGVPGGGVPGAGVPGYGVPGGGVPGAGVPGYGVPGGGVPGAGVPGYGVPGGGVPGAGVPGYGVPGGGVPGAGVPGYGPGGGG
In the case of B1, the half-life [1] is reported as 1.7 h and the “KD MSA” value [2] is reported as “no detectable binding”.
